Experimental data from PMC7949155.

Key:
Test in all cases: SEC-MALS; size-exclusion chromatography (Superdex 200) in 10-mM Tris, pH 7.5, 150-mM NaCl with Dawn Heleos II light scattering and Optilab T-rEX dRI detectors
DdahB (C. jejuni) = biological target: DdahB (C. jejuni)
DdahC (C. jejuni) = biological target: DdahC (C. jejuni)
MlghB (C. jejuni) = biological target: MlghB (C. jejuni)
MlghC (C. jejuni) = biological target: MlghC (C. jejuni)

DdahB (enzyme)
stoichiometry N (DdahB (C. jejuni)): 2

DdahC (enzyme)
stoichiometry N (DdahC (C. jejuni)): 2

MlghB (enzyme)
stoichiometry N (MlghB (C. jejuni)): 2

MlghC (enzyme)
stoichiometry N (MlghC (C. jejuni)): 2
